From patent publication US20090005253A1, “Double Hybrid System Based on Gene Silencing by Transcriptional Interference” (AVENTIS PHARMA S.A., priority 2004, published 2009)

Target: fusion protein DBD-AppCt (GAL4 DBD fused to amino acids 650 to 695 of App) (Saccharomyces cerevisiae) (UniProt P04386)
Assay: cell-based or functional assay

B1: fusion protein AD-Fe65 (GAL4 activation domain fused to amino acids 152 to 708 of Fe65) (protein)
chain: MDKAELIPEPPKKKRKVELGTAANFNQSGNIADSSLSFTFTNSSNGPNLITTQTNSQALSQPIASSNVHDNFMNNEITASKIDDGNNSKPLSPGWTDQTAYNAFGITTGMFNTTTMDDVYNYLFDDEDTPPNPKKEIEFKAAGEAEEEEEDDDDEEEEEDLSSPPGLPEPLESVEAPPRPQALTDGPREHSKSASLLFGMRNSAASDEDSSWATLSQGSPSYGSPEDTDSFWNPNAFETDSDLPAGWMRVQDTSGTYYWHIPTGTTQWEPPGRASPSQGSSPQEESQLTWTGFAHGEGFEDGEFWKDEPSDEAPMELGLKEPEEGTLTFPAQSLSPEPLPQEEEKLPPRNTNPGIKCFAVRSLGWVEMTEEELAPGRSSVAVNNCIRQLSYHKNNLHDPMSGGWGEGKDLLLQLEDETLKLVEPQSQALLHAQPIISIRVWGVGRDSGRDFAYVARDKLTQMLKCHVFRCEAPAKNIATSLHEICSKIMAERRNARCLVNGLSLDHSKLVDVPFQVEFPAPKNELVQKFQVYYLGNVPVAKPVGVDVINGALESVLSSSSREQWTPSHVSVAPATLTILHQQTEAVLGECRVRFLSFLAVGRDVHTFAFIMAAGPASFCCHMFWCEPNAASLSEAVQAACMLRYQKCLDARSQASTSCLPAPPAESVARRVGWTVRRGVQSLWGSLKPKRLGAHTP
Work on B1 yielded a 3-AT concentration at which differences in cell growth are detected of over 15 mM and a growth of strain yRB49 (UI) plated on solid medium with 3-AT of 1 mM.
